# Measurements from the nanobody polyreactivity screen of Harvey et al. (2022).
# Experiment: yeast display, Sf9 membrane polyspecificity reagent, FACS + sequencing; frameworks hold sequencing errors
# Outline: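 Nanobodies from a synthetic yeast display library (Saccharomyces cerevisiae BJ5465), induced 36–48 hours with galactose, were stained 1 hour at 4 °C with 10% biotinylated, detergent-solubilized Sf9 membrane reagent, enriched on streptavidin microbeads, then FACS-sorted. Anti-HA (expression) and streptavidin (reagent binding) fluorescence set low and high (top ~1%) gates. Polyreactivity labels come from the gate of origin. Genes were colony-PCR amplified, MiSeq 2 × 250 sequenced and filtered by CDR length.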
row,Sequence,polyreactivity (PSR sort gate)
1,QVQLVESGGCLVQAGGTLRLSCAASGRIFVSYVMGWYSQAPGKEREFVAAIRRSGSSTYYADSVKGRFTISRDNEKNTVYLQMNSLKPEDTAVFYCAAYQRSRTLRRYDYWGQGTEVTVSS,high polyreactivity
2,QVQLVESGGGLVQAGGSLRLSCAASGRTFRPYAMGWYRQAPGKERELVARITSGGGRTYYADSVKGRFTISRDNAKNTVYLQMNSLKPEDTAVYYCNKAIYSLYRDGYTNFDYWGQGTQVTVSS,high polyreactivity
3,QVQLVESGGGLVQAGGSLRLSCAASGSTFSWYAMGWYRQAPGKERELVASISFSGGDTSYADSVKGRFTISRDNAKNTVYLQMNSLKPEDTEVYYCGKEYKYETDTIFDYWGQGTQVTVSS,low polyreactivity
4,QVQLVESGGGLVQAGGSLRLSCAASGRIFKNYAMGWYRQAPGKERELVAAISWSGGRTYYADSVKGRFTISRDNAKNTVYLQMNSLKPEDTAVYYCAASIRTGYRYGYWGQGTQVTVSS,high polyreactivity
5,QVQLVESGGGLVQAGGSLRLSCAASGITFWAYAMGWYRQAPGKERELVAAITSGGSTNYADSVKGRFTISRDNAKNTVYLQMNSLKPEDTAVYYCAKNYRYYVFYDGFDYWGQGTQVTVSS,low polyreactivity
6,QVQLVESGGGLVQAGGSLRLSCAASGRIFKIYAMGWYRQAPGKEREFVATISSGGRTNYADSVKGRFTISRDNAKNTVYLQMNSLKPEDTAVYYCNAGARVLYETESFDYWGQGIQVTVSS,low polyreactivity
7,QVQLVESGGGLVQAGGSLRLSCAASGSTFGNAMGWYRQAPGKERELVAAISGSGSDTYYADSVKGRFTISRDNAKNTVYLQMNSLKPEDTAVYYCNTGWDPYGYDYWGQGTQVTVSS,low polyreactivity
8,QVQLVESGGGLVQAGGSLRLSCAASGSTFDGYAMGWYRQAPGKERELVAAISASGGSTYYADSVKGRFTISRDNAKNTVYLQMNSLKPEDTAVYYCAAQVRYLCYRYDYWGQGSQVTVSS,high polyreactivity
9,QVHLVESGGGLVQAGVSLRLSCAASGSIFRINGMGWYRQAPGKERELVAAITRSGGSTFYADSVKGRFTISRDTAKNTVYLQMNSLKPEETAVYYCAAVWYYSTVPARYEYWGQGTQVTVSS,low polyreactivity
10,KDQLVESGGGLVQAGGSLRLSCAASGRTFSHYTMGWYIQAPGKERELVARITRRGGRTYYADSVKGRFTISRDDAKNTVFLQMISLKPEDSAVYFCANEPWGYTRYTTYDYWGQGTQVTVSS,high polyreactivity
11,QVQLVESGGGLVQAGGRLRLICAASARTLDRNAIGWYRQAPGEEREFVAAISSSGDSTYADSVKGRFTISRDNAKNTVYLQMNSLKPEDTAVYYCNAEEKVTYSASYFWVYDAMDHWGQGTQVTVSS,low polyreactivity
12,QVQLVESGGGLVQAGGSLRLSCAASGFIFRFYAMGWYRQAPGKERELVATISKRGGTTYYADSVKGRFTISRDNAKNTVYLQMNSLKPEDTAVYYCAVRLYLEMDYWGQGTQVTVSS,high polyreactivity
13,QVQLVESGGGIVQAGGSLRLSCAASGSIFLYYAMGWYRQAPGKERELVAPIRGSGSSTYYADSVKGRFTISRDNAKNTVYLQMNSLKPEDTAVYYCSAKGYRWFRHGGYYFKFDYWGQGTQVTVSS,high polyreactivity
14,HVQLQESGGVLVQAGGSLRLSCAASGSIFQATYMGWYRQAPGKEREFVASITYGSITNYADSVKGRFTIGRDNAKDTLYLQMNSLKPEDTAVYYCADDRHYIPAFHYWGQGTQVTVSS,low polyreactivity
15,QVQLVESGVGLVQAGGSLRLSCADSGSIFVINAMGWYRQASGKERELVATIRARAGSTYYADSVKGRFTISRDNAKNTVYLQMNSLKPEDTAFYYCAARLKSYRVEYWGQGTQVTVSS,high polyreactivity
16,QVQIVESGGGLVQAGGSLRLSCAASGLIFYAYAMGWYRQAPGKERELVAAMSYSGGSTYYADSVKGRFTISRDLAKNTVYLQMNSLKPEDTAVYYCAADDGISTYEYWGQGTQVTVSS,high polyreactivity
17,QVQLVESGGGLVQAGGSLRLSCAASGRIFLPYAMGWYRQAPGKERELVAAITQSGVITSYADSVKGRFTISRDNAKNTVYLQMNSLKPVDTAVYYCATVRTVIVFRFPYSYGYWGQGTQVTVSS,high polyreactivity
18,QVQLVESGGGLVQAGGSLRLSCAASGFIFAGYTMGWYRQAPGKERELVAAINSGGSTKYADSVKGRFTISRDNAKNTVYLHMNSLKPEDTAVYYCNADYGWYFLFDYWGQGTQVTVSS,low polyreactivity
19,QVQLVESGGGLVQAGGSLRLSCAASGSIFRYYAMGWYRQAPGKERELVADITSSGGSTYYADSVKGRFTISRDNAKNTVYLQMNSLKPEDTAVYYCASLYWFYVYPFTEYDYWGQGTQVTVSS,low polyreactivity
20,QVQIVESGGGLVQAGGSLRLICAASGSIFFYYAMGWYRQAPGKEWELVAAITFTGGSTYYADSVKGSFTISRDNAKNTVYLQMTSLKPEDTAVYYCAADWYYGFEYEYRGQGTQVTVSS,high polyreactivity
21,QVQLVESGGGLVQAGGSLRLRCAASGSIITRYAMGWYRQAPGKERDLVAAITASGGRTYYADSVKGRFTISRDNAKNTVYFQMNSLKPEDTAVYYCNTFWRYTSQLPYDYWGQGTQVNVSS,high polyreactivity
22,QVQLVESGGGLVQAGGSLRLSCAASGRTFYNYAMGWYRQAPGKERELVATINWSGGRTYYADSVKGRFTISRDNAKNTVYLQMNSLKAEDTAVYYCAKTWLYQSNEYGYWGQGTQVTVSS,low polyreactivity

row,Sequence,polyreactivity (PSR sort gate)
1,QVQLVESGGGLVQAGGSLRLSCAASGNTFPAYAMGWYRQAPGTGGELVATISWSTGSTNYADSVKGRFTISRDNAKNTVYLQMNSLKPEDTAVYYCNKRYPSDQMDYWGQGTQVTVSS,low polyreactivity
2,QVQLVESGGGLVQAGGSLRLSCAASGSTFGYNAMGWYRPAPGKERELVARITSSGGSTYYADSVKGRFTISRDNAKISVYLQMNSLKPEDTAVYYCAAGYPYRAVYRYYYWGQGTQVTVSS,high polyreactivity
3,QVQLVDSGGGLVQAGGSLRLSCAASGRTFDNYAMGWYRQAPGKERELVAAISSSGGRTYYADSVKGRFTISRDNAKNTVYLQMNSLKPEDTAVYYCAAVWPVYRTHPGMDYWGHGTQVTVSS,high polyreactivity
4,QVQLVESGGGLLQAGGSLRLSCAASGSTFKFNAMGWYRQAPRKERELVAAISNRGGTTYYADSVKGRFTISRDNAKNTVYFHMNSLKPEDTAVYYCAAGRVQSYYYWGQGTQVTVSS,high polyreactivity
5,QVQLVESGGGLVQAGGSLRLSCAASGSIFSVYVMGWYRQAPGKERELVAAISWSDSDTYYADSVKGRFTISRDNAKNTVYLQMNSLKPEDTAVYYCAAETFDYADYIANGSGEYDYWGQGTQGTVSS,high polyreactivity
6,QVQLVESGGGLVQAGGSLRLSCAASGFTFRVNAMGWYRQAPGKERELVAAISSGGRTYYADSVKGRFTISRDNAKNTVYLQMNSLKPEDTAVYYCNAGRVRHGNDYWGQGTQVTVSS,high polyreactivity
7,QVHLVETGGGLDQAGGSLRLSCAASGYTFKTNDMRAYSPPPGKDREFVAAISAIGASTYYADSVKGRFTISRDTAKNTVYLQMKSLKPEDTAVYYCATGPYPLWYVWTDGYDHWGQGTQVPVSS,low polyreactivity
8,QVQLVESGGGLVQAGGSLRLSCAASGSISKINAMGWYRQAPWKERELVAAINTGDSTYYADSVKGRFTISRDNAKNTVYLLMNSLKPEDTAVYYCAAECSPTGYDYWGQGTQVTVSS,low polyreactivity
9,QVQLVESGGGLVQAGGSLRLSCAASGSIFTIYAMGWYRQAPGKERELVAAISFSGGSTYYADSVKGRFTISRDNAKNSVYLQMNSLKPEDTAVYYCAADGGFTYDYWGQGTQVTVSS,low polyreactivity
10,QVQLVESGGGLVQAGGSLRLSCAASGSIFVYNAMGWYRQAPGKEREMVARITYIGTSTYYADSVKGRFTISRDNAKNSVYLQMNSLKPEDTGVYYCNARRRHEGSPPYGYWGQGTQVTVSS,high polyreactivity
11,QVQLVESGGGLVQAGGSLRLSCAASGSTITSNAMGWYRQAPGKERELVAAINTSGGSTYYADSVKGRFTISRDNAKNTVYLQMNSLKPEDTAVYYCNADYGGDEYRGLEFDYWGQGTQVTVSS,low polyreactivity
12,QVQLVESGGGLVQAGGSLRLSCAASGLTFAYNGLGWYRQAPGKEGELVAEISASGASTYYADSVKGRFTISRDNAKNTVYLQMNSLKPEDTAVYYCAAPAPYDGHYSIYSWAYTDDYWGQGTQVTVSS,low polyreactivity
13,QVQLVESGGGLVQAGGSLRLSCAASGRIFNFYAMGWYRQAPGKEWELVAAITNGGGTKYADSVKGRFTISRDNAKNTVYLQMNSLKPEDTAVYYCAARYYRRQRGQTSHSRFGYWGQGTQVTVSS,high polyreactivity
14,QVQLVESGGGLVQAGGSLRLSCAASGRIFWFNAMGWYRQAPGKERELVAAISGGSTNYADSVKGRFTISRDNAKNTVYLQMNSLKPEDTAVYYCAARYLRRYNWGQGTQVTVSS,high polyreactivity
15,QVQLVESGGGLVQAGGSLRLTCAASGFTVHNKVMGWYRQAPGKERELVATISKSGGSTYYADSVKGRFTISRDNAKNTVYLEMNSLKPVDTAVYYCARRYGDYGRYGYWGQGTQVTVSS,high polyreactivity
16,QVQLVESGGGLVQAGGSLRFSCAASGSTFGTYAMGWYRQAPGKERELVAAISWSGGSTYYADSVKGRFTISRDNAKNTVYLQMNSLKPEDPAVYWGQGTQVTVSS,low polyreactivity
17,QVQLVESGGGLVQAGGSLRLSCAASGNTFYPKDMGWYRQAPGKERELVAAITTNDGDTYYADSVKGRFTISRDNAKNTVYLQMNRLKPEDTAVYYCAADSGSTSEYEYWGQGTQVTVSS,low polyreactivity
18,QVQLVESGGGLFQAGGSIRLSCAASGRISEGYAMGWYIQAPGKERELVAAITSSTASTYYADSVKGRFTISRDNAKNTVYLQMNSLKPEDTAVYYCNADYGLYPEDYDYWGQGTQVTVSS,low polyreactivity
19,QVQLVESGGGLVQAGGSLRLSCAASGSTFYRYAMGWYRQAPGKERELVAAISWDGGRTYYADSVKGRFTISRDNAKNTVYLQMNSLKPEDTAVYYCNARSSQYLGRYDYWGQGTQVTVSS,high polyreactivity
20,QVRLVESGGGLVQEGGSLRLSCAASGSTFGDYPMGWYRQAPGKERELVAAITLTGGSTYYADSVKGRFTISRDNAKNTVYLQMNSLKPEDTAVYYCNTDVIRWVGGTWHRYYYWGQGTQVTVSS,low polyreactivity
21,QVQLVESGGGLVQAGGSLRLSCAAYGRTFTWYSMGWYRQAPGKERELVAAISKSGGSTYYSDSVKGRFTISRDNAKITVYLQMNSLKPEDTAVYYCNAEFYGYFLGYGYWGQGTQVSVSS,low polyreactivity
